One molecule from US20250313614A1 (ANNEXON, published 2025) can be followed below.

As a reminder, the EC50 is the concentration that produces a half-maximal response. Lower therefore signals a more potent agent.

“And” between values parts separate entries of the source, which are not always exact repeats. Equal values may be shown once.

Assay [1] deals with T1, human C1q (human, UniProt P02745 23-245; P02746 28-253; P02747 29-245).
T1 construct: The three entries are precursors with signal peptides; in the hemolysis and deposition assays it is the C1q of human serum; also called complement factor C1q
T1 sequence (P02745 23-245 limits assumed, chain 1 of 3): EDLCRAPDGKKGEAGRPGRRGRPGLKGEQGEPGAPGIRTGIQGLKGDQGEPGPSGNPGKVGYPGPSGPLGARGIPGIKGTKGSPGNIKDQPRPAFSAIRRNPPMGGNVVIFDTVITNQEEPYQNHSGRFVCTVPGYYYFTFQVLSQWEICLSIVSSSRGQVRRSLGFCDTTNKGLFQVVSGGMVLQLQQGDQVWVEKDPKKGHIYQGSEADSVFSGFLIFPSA
T1 sequence (P02746 28-253 limits assumed, chain 2 of 3): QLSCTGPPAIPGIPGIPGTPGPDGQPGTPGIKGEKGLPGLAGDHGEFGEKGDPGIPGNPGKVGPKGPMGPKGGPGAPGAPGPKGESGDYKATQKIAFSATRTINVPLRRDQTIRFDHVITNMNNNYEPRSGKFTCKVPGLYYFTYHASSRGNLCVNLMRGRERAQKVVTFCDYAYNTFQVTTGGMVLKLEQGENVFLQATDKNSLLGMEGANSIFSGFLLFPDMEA
T1 sequence (P02747 29-245 limits assumed, chain 3 of 3): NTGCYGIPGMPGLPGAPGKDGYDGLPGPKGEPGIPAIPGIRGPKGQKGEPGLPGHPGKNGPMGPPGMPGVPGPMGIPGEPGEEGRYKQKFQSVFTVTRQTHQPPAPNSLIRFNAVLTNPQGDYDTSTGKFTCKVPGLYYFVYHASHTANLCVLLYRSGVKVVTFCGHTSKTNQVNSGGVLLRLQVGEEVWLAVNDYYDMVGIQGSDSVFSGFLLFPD
Put plainly: one-sided ELISA on human C1q, detection with enzyme-tagged anti-human-Fc or anti-human kappa antibody. The source says: Binding of Mab2-Fab, FabA and Mab2 to human C1q in a one-sided ELISA. Bound antibody or Fab molecules were detected using an enzyme-tagged anti-human-Fc or anti-human kappa antibody followed by enzyme substrate.

The target in assay [2] is T1, human C1q. The assay can be described thus: cell-based or functional assay.
In the next assay the target is C1q (Native C1q is a hexamer of A-B-C heterotrimers (18 chains); one chain of each kind is given. The collagen-like regions carry hydroxyproline and hydroxylysine.). Put plainly: cell-based or functional assay.
C1q (Native C1q is a hexamer of A-B-C heterotrimers (18 chains); one chain of each kind is given. The collagen-like regions carry hydroxyproline and hydroxylysine.), sequence (A chain, as listed by the source limits assumed, form in doubt, chain 1 of 3): as the sequence (P02745 23-245 limits assumed, chain 1 of 3) above
C1q (Native C1q is a hexamer of A-B-C heterotrimers (18 chains); one chain of each kind is given. The collagen-like regions carry hydroxyproline and hydroxylysine.), sequence (B chain, as listed by the source limits assumed, form in doubt, chain 2 of 3): as the sequence (P02746 28-253 limits assumed, chain 2 of 3) above
C1q (Native C1q is a hexamer of A-B-C heterotrimers (18 chains); one chain of each kind is given. The collagen-like regions carry hydroxyproline and hydroxylysine.), sequence (C chain, as listed by the source limits assumed, form in doubt, chain 3 of 3): as the sequence (P02747 29-245 limits assumed, chain 3 of 3) above

B1: FabA (Fab)
heavy: QVQLVQSGAELKKPGASVKVSCKSSGYHFTSYWMHWVKQAPGQGLEWIGVIHPNSGSINYNEKFESRVTITVDKSTSTAYMELSSLRSEDTAVYYCAGERDSTEVLPMDYWGQGTTVTVSSASTKGPSVFPLAPSSKSTSGGTAALGCLVKDYFPEPVTVSWNSGALTSGVHTFPAVLQSSGLYSLSSVVTVPSSSLGTQTYICNVNHKPSNTKVDKKVEPKSCDKTHT
light: DVQITQSPSSLSASLGERATINCRASKSINKYLAWYQQKPGKAPKLLIYSGSTLQSGIPARFSGSGSGTDFTLTISSLEPEDFAMYYCQQHNEYPLTFGQGTKLEIKRTVAAPSVFIFPPSDEQLKSGTASVVCLLNNFYPREAKVQWKVDNALQSGNSQESVTEQDSKDSTYSLSSTLTLSKADYEKHKVYACEVTHQGLSSPVTKSFNRGEC
notes: Recombinant humanized IgG1 Fab; also called anti-C1q Fab; anti-C1q antibody Fab fragment
Regarding B1, in the assay with human C1q [1], the midpoint of the response, the EC50, lay at 2.5 ng/mL. Besides, the “half maximal inhibitory concentration (IC50) of inhibition of IgM-coated RBC hemolysis in human serum” value with human C1q [2] is 0.62 µg/mL and ~12 nM. For the same molecule, the “IC50 of inhibition of the classical pathway (IgM-coated wells, C5b-9 detection, Weislab ELISA kit)” value with C1q was at most 300 ng/mL.
